This test concerns the target FLAG-Pol λ-WT (human, UniProt Q9UGP5 1-575). In words: cell-based or functional assay.

B1: FLAG-XRCC4 (natural protein, human, UniProt Q13426 1-336, looked up)
chain: MERKISRIHLVSEPSITHFLQVSWEKTLESGFVITLTDGHSAWTGTVSESEISQEADDMAMEKGKYVGELRKALLSGAGPADVYTFNFSKESCYFFFEKNLKDVSFRLGSFNLEKVENPAEVIRELICYCLDTIAENQAKNEHLQKENERLLRDWNDVQGRFEKCVSAKEALETDLYKRFILVLNEKKTKIRSLHNKLLNAAQEREKDIKQEGETAICSEMTADRDPVYDESTDEESENQTDLSGLASAAVSKDDSIISSLDVTDIAPSRKRRQRMQRNLGTEPKMAPQENQLQEKENSRPDSSLPETSKKEHISAENMSLETLRNSSPEDLFDEI
As for B1, the “Pol λ-dependent gap filling synthesis on a 5nt-gapped dsDNA (33-mer), stimulation by added protein over a concentration series” value was ≤ 10 fold.
